In this experiment the target is human corticotropin-releasing factor 2α (CRF2 α receptor) (human), Q13324. The experiment can be described thus: cell-based or functional assay.

Starred links: 1 amine or outer side, 2 acyl side, 3 side chain; linkers in the order of their positions; H or OH if unused. Non-standard residues stand in square brackets, D forms with d. Groups on a side chain read outwards from the residue. No end group written: not given here. *: point of attachment. C18 diacid = O=C(O)CCCCCCCCCCCCCCCCC(=O)*; γGlu = O=C(O)[C@H](CCC(=O)[*:2])N[*:1]; AEEA = NCCOCCOCC(=O)O; Aib = CC(C)(N)C(=O)O

Chain of human corticotropin-releasing factor 2α (CRF2 α receptor) (human), Q13324 (Q13324 20-411): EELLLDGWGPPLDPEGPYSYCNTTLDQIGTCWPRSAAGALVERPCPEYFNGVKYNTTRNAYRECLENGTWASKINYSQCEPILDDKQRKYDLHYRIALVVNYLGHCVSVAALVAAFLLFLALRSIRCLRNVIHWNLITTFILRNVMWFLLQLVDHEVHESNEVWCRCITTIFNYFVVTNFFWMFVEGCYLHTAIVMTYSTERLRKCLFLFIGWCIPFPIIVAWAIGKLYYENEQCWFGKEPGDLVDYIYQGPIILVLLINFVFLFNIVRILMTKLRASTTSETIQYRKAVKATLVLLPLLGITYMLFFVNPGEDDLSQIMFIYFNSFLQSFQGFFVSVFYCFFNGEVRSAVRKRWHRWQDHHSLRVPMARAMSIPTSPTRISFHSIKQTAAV

B1: SEQ ID NO: 47 (peptide)
peptide: IVLSLD[dV]PTKLK([AEEA-AEEA-γGlu-C18 diacid])KKLLKQERKR[Aib]EREKAEKAARILERV-NH2
In turn, B1 came in with an EC50 [nM], 0% HSA of 6.85 nM.

B2: SEQ ID NO: 45 (peptide)
peptide: IVLSLDVPIKLK([AEEA-AEEA-γGlu-C18 diacid])QILLEQAKQK[Aib]LKAQAETNVRILERV-NH2
modifications: N-terminus assumed
SMILES: CC[C@H](C)[C@H](N)C(=O)N[C@H](C(=O)N[C@@H](CC(C)C)C(=O)N[C@@H](CO)C(=O)N[C@@H](CC(C)C)C(=O)N[C@@H](CC(=O)O)C(=O)N[C@H](C(=O)N1CCC[C@H]1C(=O)N[C@H](C(=O)N[C@@H](CCCCN)C(=O)N[C@@H](CC(C)C)C(=O)N[C@@H](CCCCNC(=O)COCCOCCNC(=O)COCCOCCNC(=O)CC[C@H](NC(=O)CCCCCCCCCCCCCCCCC(=O)O)C(=O)O)C(=O)N[C@@H](CCC(N)=O)C(=O)N[C@H](C(=O)N[C@@H](CC(C)C)C(=O)N[C@@H](CC(C)C)C(=O)N[C@@H](CCC(=O)O)C(=O)N[C@@H](CCC(N)=O)C(=O)N[C@@H](C)C(=O)N[C@@H](CCCCN)C(=O)N[C@@H](CCC(N)=O)C(=O)N[C@@H](CCCCN)C(=O)NC(C)(C)C(=O)N[C@@H](CC(C)C)C(=O)N[C@@H](CCCCN)C(=O)N[C@@H](C)C(=O)N[C@@H](CCC(N)=O)C(=O)N[C@@H](C)C(=O)N[C@@H](CCC(=O)O)C(=O)N[C@H](C(=O)N[C@@H](CC(N)=O)C(=O)N[C@H](C(=O)N[C@@H](CCCNC(=N)N)C(=O)N[C@H](C(=O)N[C@@H](CC(C)C)C(=O)N[C@@H](CCC(=O)O)C(=O)N[C@@H](CCCNC(=N)N)C(=O)N[C@H](C(N)=O)C(C)C)[C@@H](C)CC)C(C)C)[C@@H](C)O)[C@@H](C)CC)[C@@H](C)CC)C(C)C)C(C)C
In turn, B2 showed an EC50 [nM], 0% HSA of 3.77 nM.

B3: SEQ ID NO: 46 (peptide)
peptide: IVLSLDVPIKLK([AEEA-AEEA-γGlu-C18 diacid])QILLEQAKQK[Aib]LRAQAETNVRILERV-NH2
modifications: N-terminus assumed
SMILES: CC[C@H](C)[C@H](N)C(=O)N[C@H](C(=O)N[C@@H](CC(C)C)C(=O)N[C@@H](CO)C(=O)N[C@@H](CC(C)C)C(=O)N[C@@H](CC(=O)O)C(=O)N[C@H](C(=O)N1CCC[C@H]1C(=O)N[C@H](C(=O)N[C@@H](CCCCN)C(=O)N[C@@H](CC(C)C)C(=O)N[C@@H](CCCCNC(=O)COCCOCCNC(=O)COCCOCCNC(=O)CC[C@H](NC(=O)CCCCCCCCCCCCCCCCC(=O)O)C(=O)O)C(=O)N[C@@H](CCC(N)=O)C(=O)N[C@H](C(=O)N[C@@H](CC(C)C)C(=O)N[C@@H](CC(C)C)C(=O)N[C@@H](CCC(=O)O)C(=O)N[C@@H](CCC(N)=O)C(=O)N[C@@H](C)C(=O)N[C@@H](CCCCN)C(=O)N[C@@H](CCC(N)=O)C(=O)N[C@@H](CCCCN)C(=O)NC(C)(C)C(=O)N[C@@H](CC(C)C)C(=O)N[C@@H](CCCNC(=N)N)C(=O)N[C@@H](C)C(=O)N[C@@H](CCC(N)=O)C(=O)N[C@@H](C)C(=O)N[C@@H](CCC(=O)O)C(=O)N[C@H](C(=O)N[C@@H](CC(N)=O)C(=O)N[C@H](C(=O)N[C@@H](CCCNC(=N)N)C(=O)N[C@H](C(=O)N[C@@H](CC(C)C)C(=O)N[C@@H](CCC(=O)O)C(=O)N[C@@H](CCCNC(=N)N)C(=O)N[C@H](C(N)=O)C(C)C)[C@@H](C)CC)C(C)C)[C@@H](C)O)[C@@H](C)CC)[C@@H](C)CC)C(C)C)C(C)C
For the molecule B3, the EC50 [nM], 0% HSA was determined as 0.52 nM.

The values are drawn from patent US12679878B2, “CRF2 receptor agonists and their use in therapy” (SANOFI, priority 2020, dated 2026).
